B1: SEQ ID NO 12: Vibrio fluvialis ω-transaminase, Genbank Accession No. AEA39183.1, N-terminal His-tagged (protein, listed as Vibrio fluvialis)
chain: MNKPQSWEARAETYSLYGFTDMPSLHQRGTVVVTHGEGPYIVDVNGRRYLDANSGLWNMVAGFDHKGLIDAAKAQYERFPGYHAFFGRMSDQTVMLSEKLVEVSPFDSGRVFYTNSGSEANDTMVKMLWFLHAAEGKPQKRKILTRWNAYHGVTAVSASMTGKPYNSVFGLPLPGFVHLTCPHYWRYGEEGETEEQFVARLARELEETIQREGADTIAGFFAEPVMGAGGVIPPAKGYFQAILPILRKYDIPVISDEVICGFGRTGNTWGCVTYDFTPDAIISSKNLTAGFFPMGAVILGPELSKRLETAIEAIEEFPHGFTASGHPVGCAIALKAIDVVMNEGLAENVRRLAPRFEERLKHIAERPNIGEYRGIGFMWALEAVKDKASKTPFDGNLSVSERIANTCTDLGLICRPLGQSVVLCPPFILTEAQMDEMFDKLEKALDKVFAEVA
modifications: N-terminal His tag
B2: SEQ ID NO 7: Chromobacterium violaceum ω-transaminase, Genbank Accession No. AAQ59697.1, N-terminal His-tagged (protein, listed as Chromobacterium violaceum)
chain: MQKQRTTSQWRELDAAHHLHPFTDTASLNQAGARVMTRGEGVYLWDSEGNKIIDGMAGLWCVNVGYGRKDFAEAARRQMEELPFYNTFFKTTHPAVVELSSLLAEVTPAGFDRVFYTNSGSESVDTMIRMVRRYWDVQGKPEKKTLIGRWNGYHGSTIGGASLGGMKYMHEQGDLPIPGMAHIEQPWWYKHGKDMTPDEFGVVAARWLEEKILEIGADKVAAFVGEPIQGAGGVIVPPATYWPEIERICRKYDVLLVADEVICGFGRTGEWFGHQHFGFQPDLFTAAKGLSSGYLPIGAVFVGKRVAEGLIAGGDFNHGFTYSGHPVCAAVAHANVAALRDEGIVQRVKDDIGPYMQKRWRETFSRFEHVDDVRGVGMVQAFTLVKNKAKRELFPDFGEIGTLCRDIFFRNNLIMRACGDHIVSAPPLVMTRAEVDEMLAVAERCLEEFEQTLKARGLA
modifications: N-terminal His tag
B3: SEQ ID NO 9: Pseudomonas syringae ω-transaminase, Genbank Accession No. AAY39893.1, N-terminal His-tagged (protein, listed as Pseudomonas syringae)
chain: MSANNPQTLEWQALSSEHHLAPFSDYKQLKEKGPRIITRAEGVYLWDSEGNKILDGMSGLWCVAIGYGREELADAASKQMRELPYYNLFFQTAHPPVLELAKAISDIAPEGMNHVFFTGSGSEGNDTMLRMVRHYWALKGQPNKKTIISRVNGYHGSTVAGASLGGMTYMHEQGDLPIPGVVHIPQPYWFGEGGDMTPDEFGIWAAEQLEKKILELGVENVGAFIAEPIQGAGGVIVPPDSYWPKIKEILSRYDILFAADEVICGFGRTSEWFGSDFYGLRPDMMTIAKGLTSGYVPMGGLIVRDEIVAVLNEGGDFNHGFTYSGHPVAAAVALENIRILREEKIVERVRSETAPYLQKRLRELSDHPLVGEVRGVGLLGAIELVKDKTTRERYTDKGAGMICRTFCFDNGLIMRAVGDTMIIAPPLVISFAQIDELVEKARTCLDLTLAVLQG
modifications: N-terminal His tag
B4: SEQ ID NO 8: Pseudomonas aeruginosa ω-transaminase, Genbank Accession No. AAG08191.1, N-terminal His-tagged (protein, listed as Pseudomonas aeruginosa)
chain: MNARLHATSPLGDADLVRADQAHYMHGYHVFDDHRVNGSLNIAAGDGAYIYDTAGNRYLDAVGGMWCTNIGLGREEMARTVAEQTRLLAYSNPFCDMANPRAIELCRKLAELAPGDLDHVFLTTGGSTAVDTAIRLMHYYQNCRGKRAKKHVITRINAYHGSTFLGMSLGGKSADRPAEFDFLDERIHHLACPYYYRAPEGLGEAEFLDGLVDEFERKILELGADRVGAFISEPVFGSGGVIVPPAGYHRRMWELCQRYDVLYISDEVVTSFGRLGHFFASQAVFGVQPDIILTAKGLTSGYQPLGACIFSRRIWEVIAEPDKGRCFSHGFTYSGHPVACAAALKNIEIIEREGLLAHADEVGRYFEERLQSLRDLPIVGDVRGMRFMACVEFVADKASKALFPESLNIGEWVHLRAQKRGLLVRPIVHLNVMSPPLILTREQVDTVVRVLRESIEETVEDLVRAGHR
modifications: N-terminal His tag

Tests used:
[1] = ω-transaminase activity, 6-aminohexanoate to adipate semialdehyde (reverse direction); type: biochemical; conditions: cell free extract, 10 mM 6-aminohexanoate, 10 mM pyruvate, pH 7.5, 25° C., 24 h, RP-HPLC
Protocol: (§1) A nucleotide sequence encoding a His-tag was added to the nucleic acid sequences from Chromobacterium violaceum, Pseudomonas aeruginosa, Pseudomonas syringae, Rhodobacter sphaeroides, and Vibrio fluvialis encoding the ω-transaminases of SEQ ID NOs: 7, 8, 9, 10 and 12, respectively (see FIG. 6) such that N-terminal HIS tagged ω-transaminases could be produced. Each of the resulting modified genes was cloned into a pET21a expression vector under control of the T7 promoter and each expression vector was transformed into a BL21[DE3] E. coli host. The resulting recombinant E. coli strains were cultivated at 37° C. in a 250 mL shake flask culture containing 50 mL LB media and antibiotic selection pressure, with shaking at 230 rpm. Each culture was induced overnight at 16° C. using 1 mM IPTG.
(§2) The pellet from each induced shake flask culture was harvested via centrifugation. Each pellet was resuspended and lysed via sonication. The cell debris was separated from the supernatant via centrifugation and the cell free extract was used immediately in enzyme activity assays.
Enzyme activity assays in the reverse direction (i.e., 6-aminohexanoate to adipate semialdehyde) were performed in a buffer composed of a final concentration of 50 mM HEPES buffer (pH=7.5), 10 mM 6-aminohexanoate, 10 mM pyruvate and 100 μM pyridoxyl 5′ phosphate. Each enzyme activity assay reaction was initiated by adding cell free extract of the ω-transaminase gene product or the empty vector control to the assay buffer containing the 6-aminohexanoate and incubated at 25° C. for 24 h, with shaking at 250 rpm. The formation of L-alanine from pyruvate was quantified via RP-HPLC.

[2] = ω-transaminase activity, adipate semialdehyde to 6-aminohexanoate (forward direction); type: biochemical; conditions: cell free extract, 10 mM adipate semialdehyde, 10 mM L-alanine, pH 7.5, 25° C., 4 h, RP-HPLC
Protocol: as §1, §2
Enzyme activity in the forward direction (i.e., adipate semialdehyde to 6-aminohexanoate) was confirmed for the transaminases of SEQ ID NO 7, SEQ ID NO 8, SEQ ID NO 9, SEQ ID NO 10 and SEQ ID NO 12. Enzyme activity assays were performed in a buffer composed of a final concentration of 50 mM HEPES buffer (pH=7.5), 10 mM adipate semialdehyde, 10 mM L-alanine and 100 μM pyridoxyl 5′ phosphate. Each enzyme activity assay reaction was initiated by adding a cell free extract of the ω-transaminase gene product or the empty vector control to the assay buffer containing the adipate semialdehyde and incubated at 25° C. for 4 h, with shaking at 250 rpm. The formation of pyruvate was quantified via RP-HPLC.

| Molecule | acceptance of 6-aminohexanoate as substrate (conversion of pyruvate to L-alanine vs empty vector control) [1] | acceptance of adipate semialdehyde as substrate (conversion of L-alanine to pyruvate vs empty vector control) [2] |
| --- | --- | --- |
| SEQ ID NO 10: Rhodobacter sphaeroides ω-transaminase, Genbank Accession No. ABA81135.1, N-terminal His-tagged | accepted 6-aminohexanote as substrate | accepted adipate semialdehyde as substrate |
| B1 | accepted 6-aminohexanote as substrate | accepted adipate semialdehyde as substrate |
| B2 | accepted 6-aminohexanote as substrate | accepted adipate semialdehyde as substrate |
| B3 | accepted 6-aminohexanote as substrate | accepted adipate semialdehyde as substrate |
| B4 |  | accepted adipate semialdehyde as substrate |

Reference: US20160160255A1, “Methods and Materials for Producing 6-Carbon Monomers” (INVISTA North America S.á.r.l., priority 2014, published 2016)
